Biological target: Human CD137 ECD (human)
Test: SPR, vs parent H183/L072

Sequence of Human CD137 ECD (human) (chain, as listed by the source limits assumed): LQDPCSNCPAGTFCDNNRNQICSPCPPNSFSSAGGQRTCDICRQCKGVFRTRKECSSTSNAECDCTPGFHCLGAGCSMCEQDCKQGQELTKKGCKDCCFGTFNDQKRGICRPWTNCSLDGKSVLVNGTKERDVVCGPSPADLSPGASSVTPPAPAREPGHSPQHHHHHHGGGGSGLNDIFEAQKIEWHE

Row | Binder | fold change of affinity [fold]
1 | dBBDu183H L100dN / dBBDu072L (antibody, name in Kabat numbering, V domains shown) VH: QVQLVESGGGLVQPGRSLRLSCAASGFTFSNAWMHWVRQAPGKGLEWVAQIKDKGNAYAAYYAPSVKGRFTISRDDSKNSIYLQMNSLKTEDTAVYYCHYVHYASASTVNPAFGVDAWGQGTTVTVSS VL: DIVMTQSPLSLPVTPGEPASISCQASQELVHMNRNTYLHWYQQKPGQAPRLLIYKVSNRFPGVPDRFSGSGSGTDFTLKISRVEAEDVGVYYCAQGTSVPFTFGQGTKLEIK | 0
2 | dBBDu183H A102N / dBBDu072L (antibody, name in Kabat numbering, V domains shown) VH: QVQLVESGGGLVQPGRSLRLSCAASGFTFSNAWMHWVRQAPGKGLEWVAQIKDKGNAYAAYYAPSVKGRFTISRDDSKNSIYLQMNSLKTEDTAVYYCHYVHYASASTVLPAFGVDNWGQGTTVTVSS VL: DIVMTQSPLSLPVTPGEPASISCQASQELVHMNRNTYLHWYQQKPGQAPRLLIYKVSNRFPGVPDRFSGSGSGTDFTLKISRVEAEDVGVYYCAQGTSVPFTFGQGTKLEIK | 0
3 | dBBDu183H F100gN / dBBDu072L (antibody, name in Kabat numbering, V domains shown) VH: QVQLVESGGGLVQPGRSLRLSCAASGFTFSNAWMHWVRQAPGKGLEWVAQIKDKGNAYAAYYAPSVKGRFTISRDDSKNSIYLQMNSLKTEDTAVYYCHYVHYASASTVLPANGVDAWGQGTTVTVSS VL: DIVMTQSPLSLPVTPGEPASISCQASQELVHMNRNTYLHWYQQKPGQAPRLLIYKVSNRFPGVPDRFSGSGSGTDFTLKISRVEAEDVGVYYCAQGTSVPFTFGQGTKLEIK | 0
4 | dBBDu183H Y97S / dBBDu072L (antibody, name in Kabat numbering, V domains shown) VH: QVQLVESGGGLVQPGRSLRLSCAASGFTFSNAWMHWVRQAPGKGLEWVAQIKDKGNAYAAYYAPSVKGRFTISRDDSKNSIYLQMNSLKTEDTAVYYCHYVHSASASTVLPAFGVDAWGQGTTVTVSS VL: DIVMTQSPLSLPVTPGEPASISCQASQELVHMNRNTYLHWYQQKPGQAPRLLIYKVSNRFPGVPDRFSGSGSGTDFTLKISRVEAEDVGVYYCAQGTSVPFTFGQGTKLEIK | 0
5 | dBBDu183H A100fN / dBBDu072L (antibody, name in Kabat numbering, V domains shown) VH: QVQLVESGGGLVQPGRSLRLSCAASGFTFSNAWMHWVRQAPGKGLEWVAQIKDKGNAYAAYYAPSVKGRFTISRDDSKNSIYLQMNSLKTEDTAVYYCHYVHYASASTVLPNFGVDAWGQGTTVTVSS VL: DIVMTQSPLSLPVTPGEPASISCQASQELVHMNRNTYLHWYQQKPGQAPRLLIYKVSNRFPGVPDRFSGSGSGTDFTLKISRVEAEDVGVYYCAQGTSVPFTFGQGTKLEIK | 0
6 | dBBDu183H V95S / dBBDu072L (antibody, name in Kabat numbering, V domains shown) VH: QVQLVESGGGLVQPGRSLRLSCAASGFTFSNAWMHWVRQAPGKGLEWVAQIKDKGNAYAAYYAPSVKGRFTISRDDSKNSIYLQMNSLKTEDTAVYYCHYSHYASASTVLPAFGVDAWGQGTTVTVSS VL: DIVMTQSPLSLPVTPGEPASISCQASQELVHMNRNTYLHWYQQKPGQAPRLLIYKVSNRFPGVPDRFSGSGSGTDFTLKISRVEAEDVGVYYCAQGTSVPFTFGQGTKLEIK | 0
7 | dBBDu183H G100hN / dBBDu072L (antibody, name in Kabat numbering, V domains shown) VH: QVQLVESGGGLVQPGRSLRLSCAASGFTFSNAWMHWVRQAPGKGLEWVAQIKDKGNAYAAYYAPSVKGRFTISRDDSKNSIYLQMNSLKTEDTAVYYCHYVHYASASTVLPAFNVDAWGQGTTVTVSS VL: DIVMTQSPLSLPVTPGEPASISCQASQELVHMNRNTYLHWYQQKPGQAPRLLIYKVSNRFPGVPDRFSGSGSGTDFTLKISRVEAEDVGVYYCAQGTSVPFTFGQGTKLEIK | 0
8 | dBBDu183H S100aQ / dBBDu072L (antibody, name in Kabat numbering, V domains shown) VH: QVQLVESGGGLVQPGRSLRLSCAASGFTFSNAWMHWVRQAPGKGLEWVAQIKDKGNAYAAYYAPSVKGRFTISRDDSKNSIYLQMNSLKTEDTAVYYCHYVHYASAQTVLPAFGVDAWGQGTTVTVSS VL: DIVMTQSPLSLPVTPGEPASISCQASQELVHMNRNTYLHWYQQKPGQAPRLLIYKVSNRFPGVPDRFSGSGSGTDFTLKISRVEAEDVGVYYCAQGTSVPFTFGQGTKLEIK | 0
9 | dBBDu183H V100iQ / dBBDu072L (antibody, name in Kabat numbering, V domains shown) VH: QVQLVESGGGLVQPGRSLRLSCAASGFTFSNAWMHWVRQAPGKGLEWVAQIKDKGNAYAAYYAPSVKGRFTISRDDSKNSIYLQMNSLKTEDTAVYYCHYVHYASASTVLPAFGQDAWGQGTTVTVSS VL: DIVMTQSPLSLPVTPGEPASISCQASQELVHMNRNTYLHWYQQKPGQAPRLLIYKVSNRFPGVPDRFSGSGSGTDFTLKISRVEAEDVGVYYCAQGTSVPFTFGQGTKLEIK | 0
10 | dBBDu183H G100hQ / dBBDu072L (antibody, name in Kabat numbering, V domains shown) VH: QVQLVESGGGLVQPGRSLRLSCAASGFTFSNAWMHWVRQAPGKGLEWVAQIKDKGNAYAAYYAPSVKGRFTISRDDSKNSIYLQMNSLKTEDTAVYYCHYVHYASASTVLPAFQVDAWGQGTTVTVSS VL: DIVMTQSPLSLPVTPGEPASISCQASQELVHMNRNTYLHWYQQKPGQAPRLLIYKVSNRFPGVPDRFSGSGSGTDFTLKISRVEAEDVGVYYCAQGTSVPFTFGQGTKLEIK | 0
11 | dBBDu183H A100fQ / dBBDu072L (antibody, name in Kabat numbering, V domains shown) VH: QVQLVESGGGLVQPGRSLRLSCAASGFTFSNAWMHWVRQAPGKGLEWVAQIKDKGNAYAAYYAPSVKGRFTISRDDSKNSIYLQMNSLKTEDTAVYYCHYVHYASASTVLPQFGVDAWGQGTTVTVSS VL: DIVMTQSPLSLPVTPGEPASISCQASQELVHMNRNTYLHWYQQKPGQAPRLLIYKVSNRFPGVPDRFSGSGSGTDFTLKISRVEAEDVGVYYCAQGTSVPFTFGQGTKLEIK | 0

Second part, the binder after the results:

Row | fold change of affinity [fold] | Binder
12 | 0 | dBBDu183H H93Q / dBBDu072L (antibody, name in Kabat numbering, V domains shown) VH: QVQLVESGGGLVQPGRSLRLSCAASGFTFSNAWMHWVRQAPGKGLEWVAQIKDKGNAYAAYYAPSVKGRFTISRDDSKNSIYLQMNSLKTEDTAVYYCQYVHYASASTVLPAFGVDAWGQGTTVTVSS VL: DIVMTQSPLSLPVTPGEPASISCQASQELVHMNRNTYLHWYQQKPGQAPRLLIYKVSNRFPGVPDRFSGSGSGTDFTLKISRVEAEDVGVYYCAQGTSVPFTFGQGTKLEIK
13 | 0 | dBBDu183H A102Q / dBBDu072L (antibody, name in Kabat numbering, V domains shown) VH: QVQLVESGGGLVQPGRSLRLSCAASGFTFSNAWMHWVRQAPGKGLEWVAQIKDKGNAYAAYYAPSVKGRFTISRDDSKNSIYLQMNSLKTEDTAVYYCHYVHYASASTVLPAFGVDQWGQGTTVTVSS VL: DIVMTQSPLSLPVTPGEPASISCQASQELVHMNRNTYLHWYQQKPGQAPRLLIYKVSNRFPGVPDRFSGSGSGTDFTLKISRVEAEDVGVYYCAQGTSVPFTFGQGTKLEIK
14 | 0 | dBBDu183H V100iN / dBBDu072L (antibody, name in Kabat numbering, V domains shown) VH: QVQLVESGGGLVQPGRSLRLSCAASGFTFSNAWMHWVRQAPGKGLEWVAQIKDKGNAYAAYYAPSVKGRFTISRDDSKNSIYLQMNSLKTEDTAVYYCHYVHYASASTVLPAFGNDAWGQGTTVTVSS VL: DIVMTQSPLSLPVTPGEPASISCQASQELVHMNRNTYLHWYQQKPGQAPRLLIYKVSNRFPGVPDRFSGSGSGTDFTLKISRVEAEDVGVYYCAQGTSVPFTFGQGTKLEIK
15 | 0 | dBBDu183H A98Q / dBBDu072L (antibody, name in Kabat numbering, V domains shown) VH: QVQLVESGGGLVQPGRSLRLSCAASGFTFSNAWMHWVRQAPGKGLEWVAQIKDKGNAYAAYYAPSVKGRFTISRDDSKNSIYLQMNSLKTEDTAVYYCHYVHYQSASTVLPAFGVDAWGQGTTVTVSS VL: DIVMTQSPLSLPVTPGEPASISCQASQELVHMNRNTYLHWYQQKPGQAPRLLIYKVSNRFPGVPDRFSGSGSGTDFTLKISRVEAEDVGVYYCAQGTSVPFTFGQGTKLEIK
16 | 0 | dBBDu183H H93S / dBBDu072L (antibody, name in Kabat numbering, V domains shown) VH: QVQLVESGGGLVQPGRSLRLSCAASGFTFSNAWMHWVRQAPGKGLEWVAQIKDKGNAYAAYYAPSVKGRFTISRDDSKNSIYLQMNSLKTEDTAVYYCSYVHYASASTVLPAFGVDAWGQGTTVTVSS VL: DIVMTQSPLSLPVTPGEPASISCQASQELVHMNRNTYLHWYQQKPGQAPRLLIYKVSNRFPGVPDRFSGSGSGTDFTLKISRVEAEDVGVYYCAQGTSVPFTFGQGTKLEIK
17 | 0 | dBBDu183H H96Q / dBBDu072L (antibody, name in Kabat numbering, V domains shown) VH: QVQLVESGGGLVQPGRSLRLSCAASGFTFSNAWMHWVRQAPGKGLEWVAQIKDKGNAYAAYYAPSVKGRFTISRDDSKNSIYLQMNSLKTEDTAVYYCHYVQYASASTVLPAFGVDAWGQGTTVTVSS VL: DIVMTQSPLSLPVTPGEPASISCQASQELVHMNRNTYLHWYQQKPGQAPRLLIYKVSNRFPGVPDRFSGSGSGTDFTLKISRVEAEDVGVYYCAQGTSVPFTFGQGTKLEIK
18 | 0 | dBBDu183H H96S / dBBDu072L (antibody, name in Kabat numbering, V domains shown) VH: QVQLVESGGGLVQPGRSLRLSCAASGFTFSNAWMHWVRQAPGKGLEWVAQIKDKGNAYAAYYAPSVKGRFTISRDDSKNSIYLQMNSLKTEDTAVYYCHYVSYASASTVLPAFGVDAWGQGTTVTVSS VL: DIVMTQSPLSLPVTPGEPASISCQASQELVHMNRNTYLHWYQQKPGQAPRLLIYKVSNRFPGVPDRFSGSGSGTDFTLKISRVEAEDVGVYYCAQGTSVPFTFGQGTKLEIK
19 | 0 | dBBDu183H V95Q / dBBDu072L (antibody, name in Kabat numbering, V domains shown) VH: QVQLVESGGGLVQPGRSLRLSCAASGFTFSNAWMHWVRQAPGKGLEWVAQIKDKGNAYAAYYAPSVKGRFTISRDDSKNSIYLQMNSLKTEDTAVYYCHYQHYASASTVLPAFGVDAWGQGTTVTVSS VL: DIVMTQSPLSLPVTPGEPASISCQASQELVHMNRNTYLHWYQQKPGQAPRLLIYKVSNRFPGVPDRFSGSGSGTDFTLKISRVEAEDVGVYYCAQGTSVPFTFGQGTKLEIK
20 | 0 | dBBDu183H Y97Q / dBBDu072L (antibody, name in Kabat numbering, V domains shown) VH: QVQLVESGGGLVQPGRSLRLSCAASGFTFSNAWMHWVRQAPGKGLEWVAQIKDKGNAYAAYYAPSVKGRFTISRDDSKNSIYLQMNSLKTEDTAVYYCHYVHQASASTVLPAFGVDAWGQGTTVTVSS VL: DIVMTQSPLSLPVTPGEPASISCQASQELVHMNRNTYLHWYQQKPGQAPRLLIYKVSNRFPGVPDRFSGSGSGTDFTLKISRVEAEDVGVYYCAQGTSVPFTFGQGTKLEIK
21 | 0 | dBBDu183H A100S / dBBDu072L (antibody, name in Kabat numbering, V domains shown) VH: QVQLVESGGGLVQPGRSLRLSCAASGFTFSNAWMHWVRQAPGKGLEWVAQIKDKGNAYAAYYAPSVKGRFTISRDDSKNSIYLQMNSLKTEDTAVYYCHYVHYASSSTVLPAFGVDAWGQGTTVTVSS VL: DIVMTQSPLSLPVTPGEPASISCQASQELVHMNRNTYLHWYQQKPGQAPRLLIYKVSNRFPGVPDRFSGSGSGTDFTLKISRVEAEDVGVYYCAQGTSVPFTFGQGTKLEIK

Source: patent publication US20210388087A1
